Article PMC3296735
Residue numbers refer to the chain shown, from its start.

Assays:
[1] = biological target: T1, human GIPR with C-terminal V5 epitope (GIPR-V5) (human) (UniProt P48546)
T1 sequence: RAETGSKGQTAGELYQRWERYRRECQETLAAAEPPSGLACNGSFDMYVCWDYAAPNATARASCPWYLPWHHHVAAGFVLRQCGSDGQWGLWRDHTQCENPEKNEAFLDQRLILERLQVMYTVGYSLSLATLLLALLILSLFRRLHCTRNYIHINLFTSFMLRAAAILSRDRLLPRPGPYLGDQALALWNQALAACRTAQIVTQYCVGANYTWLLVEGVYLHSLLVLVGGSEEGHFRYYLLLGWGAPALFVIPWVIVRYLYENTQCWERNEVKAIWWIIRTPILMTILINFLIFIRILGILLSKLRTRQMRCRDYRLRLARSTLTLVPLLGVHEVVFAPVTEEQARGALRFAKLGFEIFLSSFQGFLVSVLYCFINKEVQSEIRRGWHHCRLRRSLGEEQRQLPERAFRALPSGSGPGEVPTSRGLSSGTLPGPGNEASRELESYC

[2] = biological target: T1, human GIPR with C-terminal V5 epitope (GIPR-V5) (human); remark: listed apart in the source
N77Q-GIPR-V5 (human) = biological target: T2, N77Q-GIPR-V5 (human) (UniProt P48546)
T2 sequence: T1 sequence with N56Q

N62Q-GIPR-V5 (human) = biological target: T3, N62Q-GIPR-V5 (human) (UniProt P48546)
T3 sequence: T1 sequence with N41Q

[3] = biological target: N63,82Q-GLP-1R-V5 (human) (UniProt P43220)
N115Q-GLP1R-V5 (human) = N115Q-GLP1R-V5 (human) (UniProt P43220)
[4] = biological target: N63,82,115Q-GLP-1R-V5 (human) (UniProt P43220)
N63Q-GLP1R-V5 (human) = N63Q-GLP1R-V5 (human) (UniProt P43220)
N82Q-GLP1R-V5 (human) = N82Q-GLP1R-V5 (human) (UniProt P43220)
[5] = biological target: human GLP1R with C-terminal V5 epitope (GLP1R-V5) (human) (UniProt P43220)

Row | EC50 of GIP for cAMP production (LANCE TR-FRET) in CHO cells expressing the receptor; series of Figure 8A [1] [pM] | EC50 of GIP for cAMP production (LANCE TR-FRET, 30 min stimulation) in CHO cells expressing the receptor [2] [pM] | EC50 of GIP for cAMP production (LANCE TR-FRET, 30 min stimulation) in CHO cells expressing the receptor (N77Q-GIPR-V5 (human)) [pM] | EC50 of GIP for cAMP production (LANCE TR-FRET, 30 min stimulation) in CHO cells expressing the receptor (N62Q-GIPR-V5 (human)) [pM] | EC50 of GLP-1 for cAMP production (LANCE TR-FRET, 30 min stimulation) in CHO cells expressing the receptor [3] [pM] | EC50 of GLP-1 for cAMP production (LANCE TR-FRET, 30 min stimulation) in CHO cells expressing the receptor (N115Q-GLP1R-V5 (human)) [pM] | EC50 of GLP-1 for cAMP production (LANCE TR-FRET, 30 min stimulation) in CHO cells expressing the receptor [4] [pM] | EC50 of GLP-1 for cAMP production (LANCE TR-FRET, 30 min stimulation) in CHO cells expressing the receptor (N63Q-GLP1R-V5 (human)) [pM] | EC50 of GLP-1 for cAMP production (LANCE TR-FRET, 30 min stimulation) in CHO cells expressing the receptor (N82Q-GLP1R-V5 (human)) [pM] | EC50 of GLP-1 for cAMP production (LANCE TR-FRET, 30 min stimulation) in CHO cells expressing the receptor; series with the double and triple mutants [5] [pM] | EC50 of GLP-1 for cAMP production (LANCE TR-FRET, 30 min stimulation) in CHO cells expressing the receptor; series with the single site mutants [5] [pM] | Substance
1 | 34 | 82 | 3100 | 100 |  |  |  |  |  |  |  | GIP peptide (Glucose-dependent Insulinotropic Polypeptide) (from UniProt P09681 52-93) (ligand)
2 |  |  |  |  | 580 | 720 | 2700 | 630 | 710 | 220 | 410 | GLP-1 7–36 amide (ligand)
